Reference: PMC2622761

Target: GST-PfMTIP (P. falciparum (3D7)) (UniProt Q8I4W8)
Test: pull-down; GST or GST-MTIP coupled to glutathione-Sepharose 4B; 25 µg His-tagged Rab protein incubated overnight at 4°C; four washes in PBS (0.1% Triton X-100); detected by anti-His immunoblot

How did the percent of input detected in the pull-down turn out when PfRab11A-His (natural protein) was run?
Its percent of input detected in the pull-down is 5%.
